Assay results: PMC3236778

Legend:
[1] = target: GkDnaC R420A mutant (arginine finger) (Geobacillus kaustophilus HTA426); test: SEC; size-exclusion column during purification; data not shown
[2] = target: GkDnaC K309A mutant (Geobacillus kaustophilus HTA426); test: as above
[3] = target: GkDnaC helicase, wild-type (replicative helicase of Geobacillus kaustophilus HTA426) (Geobacillus kaustophilus HTA426); test: as above
[4] = target: GkDnaC helicase, wild-type (replicative helicase of Geobacillus kaustophilus HTA426) (Geobacillus kaustophilus HTA426)

Question: Which stoichiometry N [1] does the source give for “GkDnaC R420A mutant (arginine finger) (enzyme)” here?
Answer: 6

Question: How did the stoichiometry N [2] turn out when GkDnaC K309A mutant (enzyme) was run?
Answer: 6

Question: With “GkDnaC helicase, wild-type (replicative helicase of Geobacillus kaustophilus HTA426) (enzyme)” as the molecule, how does the stoichiometry N [3] read?
Answer: 6

Question: Which ATPase activity of the GkDnaC-GkDnaI complex (NADH-coupled assay) [4] does the source give for “GkDnaI helicase loader (natural protein)” here?
Answer: 18.1 µM/min

Question: And the unwinding efficiency (fold, against GkDnaC alone), gel shift assay of fork DNA unwinding [4]?
Answer: 0.15 fold

B1: GkDnaG primase, full-length wild-type (enzyme)
chain: MGHRIPEETIEAIRRGVDIVDVIGEYVQLKKQGRNYFGLCPFHGEKTPSFSVSPEKQIFHCFGCGAGGNAFTFLMDIEGIPFVEAAKRLAAKAGIDLSAYELDSRGSDGSRADEAKAMVEAHTLLKRFYHHLLVHTKEGQAALDYLQVRGWTKETIDRFEIGYAPDVPDAAVRLLESRSFPLVLMEKAGLLVKKEDGRYVDRFRNRIMFPIHDHRGETVGFSGRLLGDGQPKYMNSPETPIFRKGTLLYFFHEARVSIRKRQEALLVEGFADVISAVQAGVDYVVATMGTSLTEEQARILRRHAETVTICYDGDSAGTEAAWRAAEQLSAFGCRVKVALLPDGLDPDEYIRTCGADRFAEEIAAARPLMAFKMDRLRRGKNLQEEGDRLRYIEEALREISKLSSPVEKDYYMRQLADEFSLSLSALYEQLSRSKPEQPKPQVNDGGKPVRPALTKKLLPAFQNAERLLLAHMMRSRDVAFIVQEQVGGRFNIEEHRALAAYIYAFYEEGHEADPSALMSRLPGELRTLASELSLLLVADDVSDRELADCIRHVLNHPKWLMLKEKEQEKTEAERRKDFLTAARIAKEMIEMKKMLSSS
Question: Which ATPase activity of the GkDnaC-GkDnaG complex (NADH-coupled assay) [4] does the source give for B1 here?
Answer: 79.5 µM/min

Question: What about the unwinding efficiency (fold, against GkDnaC alone), gel shift assay of fork DNA unwinding [4] of the same molecule?
Answer: 1.45 fold

Question: And the unwinding velocity of the GkDnaC-GkDnaG complex (smTPM) [4]?
Answer: 7.44 bp/s
